Source: the supplement of paper PMC10065799, “High-throughput profiling of sequence recognition by tyrosine kinases and SH2 domains using bacterial peptide display” (eLife, 2023)

Assays:
[1] = molecular target: FGFR1 (UniProt P11362); test: phosphorylation enrichment, bacterial display (enrichment ratio); higher = better substrate or ligand; peptides without Tyr show the background
[2] = molecular target: MERTK (UniProt Q12866); test: as above
[3] = system: Fer (mouse); test: as above
[4] = molecular target: Jak2 (UniProt O60674); test: as above
[5] = system: c-Src; test: as above
[6] = system: AncSZ; test: as above
[7] = molecular target: Hck (UniProt P08631); test: as above
Hck, sequence (P08631 whole entry, looked up): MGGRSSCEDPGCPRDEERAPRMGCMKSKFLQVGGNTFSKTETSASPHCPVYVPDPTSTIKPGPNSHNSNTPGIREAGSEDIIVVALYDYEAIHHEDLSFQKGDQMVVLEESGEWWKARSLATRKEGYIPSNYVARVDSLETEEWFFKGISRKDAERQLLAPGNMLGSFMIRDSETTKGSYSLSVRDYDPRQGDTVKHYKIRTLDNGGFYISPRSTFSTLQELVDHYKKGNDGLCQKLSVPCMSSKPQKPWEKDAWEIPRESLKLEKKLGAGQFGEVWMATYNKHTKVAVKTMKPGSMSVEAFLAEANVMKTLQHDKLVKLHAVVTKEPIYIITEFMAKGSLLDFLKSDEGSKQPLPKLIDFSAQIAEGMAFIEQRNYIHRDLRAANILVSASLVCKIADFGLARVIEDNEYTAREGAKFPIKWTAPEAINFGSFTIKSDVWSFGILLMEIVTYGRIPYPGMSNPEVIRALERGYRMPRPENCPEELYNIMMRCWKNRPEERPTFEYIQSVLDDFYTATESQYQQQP

[8] = molecular target: EPHB2 (UniProt P29323); test: as above
[9] = system: c-Abl (mouse); test: as above
[10] = molecular target: EPHB1 (UniProt P54762); test: as above
EPHB1, sequence (P54762 whole entry, looked up): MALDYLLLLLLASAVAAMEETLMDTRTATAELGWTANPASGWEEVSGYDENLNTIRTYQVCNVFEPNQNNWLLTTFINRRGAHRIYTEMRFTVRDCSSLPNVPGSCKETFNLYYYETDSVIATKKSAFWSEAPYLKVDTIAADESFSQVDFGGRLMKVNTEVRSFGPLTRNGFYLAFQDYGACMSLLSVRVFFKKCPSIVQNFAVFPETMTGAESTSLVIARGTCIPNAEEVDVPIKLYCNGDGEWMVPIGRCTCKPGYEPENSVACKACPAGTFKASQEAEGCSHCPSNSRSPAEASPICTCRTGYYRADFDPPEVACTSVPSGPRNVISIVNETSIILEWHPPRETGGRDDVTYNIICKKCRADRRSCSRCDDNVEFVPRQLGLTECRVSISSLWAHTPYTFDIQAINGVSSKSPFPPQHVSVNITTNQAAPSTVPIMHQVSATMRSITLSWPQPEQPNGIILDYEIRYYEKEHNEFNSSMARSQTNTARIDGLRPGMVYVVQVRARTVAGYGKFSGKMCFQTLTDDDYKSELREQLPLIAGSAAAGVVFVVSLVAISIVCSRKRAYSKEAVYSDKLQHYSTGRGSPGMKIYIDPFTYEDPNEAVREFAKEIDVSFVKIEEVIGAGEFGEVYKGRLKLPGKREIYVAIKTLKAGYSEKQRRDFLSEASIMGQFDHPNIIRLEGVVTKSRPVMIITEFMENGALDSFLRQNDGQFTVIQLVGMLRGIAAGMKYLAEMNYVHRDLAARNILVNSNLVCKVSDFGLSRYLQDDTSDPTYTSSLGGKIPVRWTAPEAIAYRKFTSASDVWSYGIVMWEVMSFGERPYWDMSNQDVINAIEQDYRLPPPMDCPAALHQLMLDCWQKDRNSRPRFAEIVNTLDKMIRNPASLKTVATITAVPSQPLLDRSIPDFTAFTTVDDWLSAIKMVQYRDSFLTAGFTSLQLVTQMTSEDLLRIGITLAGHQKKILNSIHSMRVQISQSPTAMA

[11] = molecular target: Fyn (UniProt P06241); test: as above
Fyn, sequence (P06241 whole entry, looked up): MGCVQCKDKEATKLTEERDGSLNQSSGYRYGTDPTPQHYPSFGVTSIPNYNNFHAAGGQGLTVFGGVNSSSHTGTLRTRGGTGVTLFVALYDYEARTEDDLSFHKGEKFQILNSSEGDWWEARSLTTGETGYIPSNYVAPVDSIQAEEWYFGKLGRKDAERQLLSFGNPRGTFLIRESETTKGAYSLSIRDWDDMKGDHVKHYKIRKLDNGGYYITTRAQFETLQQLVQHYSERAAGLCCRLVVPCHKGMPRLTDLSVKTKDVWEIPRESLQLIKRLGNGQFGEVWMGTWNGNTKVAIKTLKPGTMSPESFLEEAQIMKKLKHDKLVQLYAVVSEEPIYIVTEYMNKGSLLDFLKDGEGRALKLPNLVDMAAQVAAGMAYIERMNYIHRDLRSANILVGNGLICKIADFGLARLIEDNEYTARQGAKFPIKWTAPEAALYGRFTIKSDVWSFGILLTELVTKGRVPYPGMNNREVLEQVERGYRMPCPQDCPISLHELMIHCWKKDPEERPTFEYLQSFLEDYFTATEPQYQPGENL

[12] = molecular target: Fes (UniProt P07332); test: as above
Fes, sequence (P07332 whole entry, looked up): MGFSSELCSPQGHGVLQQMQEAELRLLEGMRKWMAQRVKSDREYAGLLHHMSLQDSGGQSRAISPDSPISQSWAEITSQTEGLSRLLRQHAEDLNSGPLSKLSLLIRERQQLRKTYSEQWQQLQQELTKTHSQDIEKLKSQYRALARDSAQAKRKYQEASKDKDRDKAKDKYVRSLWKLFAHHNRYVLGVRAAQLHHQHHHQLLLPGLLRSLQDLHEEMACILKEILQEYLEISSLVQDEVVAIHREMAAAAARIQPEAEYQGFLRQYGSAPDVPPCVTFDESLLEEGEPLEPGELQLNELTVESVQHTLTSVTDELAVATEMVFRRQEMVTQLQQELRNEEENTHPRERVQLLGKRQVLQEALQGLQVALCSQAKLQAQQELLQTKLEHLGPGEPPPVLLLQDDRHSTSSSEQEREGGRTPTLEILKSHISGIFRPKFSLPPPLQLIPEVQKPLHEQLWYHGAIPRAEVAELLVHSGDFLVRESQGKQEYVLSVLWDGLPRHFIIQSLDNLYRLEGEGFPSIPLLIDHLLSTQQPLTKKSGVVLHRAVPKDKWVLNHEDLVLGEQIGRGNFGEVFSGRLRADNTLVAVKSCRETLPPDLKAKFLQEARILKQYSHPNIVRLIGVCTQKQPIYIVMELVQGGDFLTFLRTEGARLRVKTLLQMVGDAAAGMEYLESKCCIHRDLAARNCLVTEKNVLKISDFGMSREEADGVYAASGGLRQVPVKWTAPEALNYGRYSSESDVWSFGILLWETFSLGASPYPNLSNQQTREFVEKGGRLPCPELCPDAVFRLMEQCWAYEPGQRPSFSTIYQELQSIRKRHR

[13] = molecular target: FGFR3 (UniProt P22607); test: as above
FGFR3, sequence (P22607 whole entry, looked up): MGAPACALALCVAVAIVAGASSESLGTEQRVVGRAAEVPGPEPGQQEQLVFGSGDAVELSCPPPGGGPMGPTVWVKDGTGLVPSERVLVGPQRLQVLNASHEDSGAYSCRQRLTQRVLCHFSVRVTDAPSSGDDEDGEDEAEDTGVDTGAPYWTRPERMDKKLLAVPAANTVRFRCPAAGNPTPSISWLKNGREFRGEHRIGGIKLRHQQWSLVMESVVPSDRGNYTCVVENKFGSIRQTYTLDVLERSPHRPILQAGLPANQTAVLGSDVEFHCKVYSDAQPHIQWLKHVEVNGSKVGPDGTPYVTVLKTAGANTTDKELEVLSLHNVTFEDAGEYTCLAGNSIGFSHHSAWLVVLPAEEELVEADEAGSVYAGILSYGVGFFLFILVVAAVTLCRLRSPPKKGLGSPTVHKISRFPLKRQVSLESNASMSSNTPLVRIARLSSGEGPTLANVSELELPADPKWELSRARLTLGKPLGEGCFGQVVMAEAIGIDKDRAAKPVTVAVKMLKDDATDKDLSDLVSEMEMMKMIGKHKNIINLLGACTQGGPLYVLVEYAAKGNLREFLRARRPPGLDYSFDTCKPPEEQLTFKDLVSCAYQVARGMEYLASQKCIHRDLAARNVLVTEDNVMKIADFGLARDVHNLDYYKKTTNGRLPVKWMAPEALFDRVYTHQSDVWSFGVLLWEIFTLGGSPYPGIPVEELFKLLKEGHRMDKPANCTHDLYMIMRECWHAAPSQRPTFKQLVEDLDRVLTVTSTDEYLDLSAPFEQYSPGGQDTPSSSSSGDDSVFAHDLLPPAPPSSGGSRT

[14] = molecular target: c-Src SH2; test: SH2 binding enrichment of the phosphorylated peptide, bacterial display (enrichment ratio); higher = better substrate or ligand; peptides without Tyr show the background
[15] = molecular target: SHP2-C SH2; test: as above
[16] = molecular target: Grb2 SH2 (UniProt P62993); test: as above
Grb2 SH2, sequence (P62993 whole entry, looked up, the tested form may be a part): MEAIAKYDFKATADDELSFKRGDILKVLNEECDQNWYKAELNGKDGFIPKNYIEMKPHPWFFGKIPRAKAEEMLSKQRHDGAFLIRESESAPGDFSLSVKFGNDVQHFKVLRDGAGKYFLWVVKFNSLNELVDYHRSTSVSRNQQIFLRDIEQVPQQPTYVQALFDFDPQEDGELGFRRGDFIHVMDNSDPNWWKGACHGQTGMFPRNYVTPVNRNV
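For SH2 binding enrichment of the phosphorylated peptide, bacterial display in this document: peptide library displayed on the E. coli surface as eCPX fusions, selected cells deep-sequenced, score is each peptide's frequency after selection divided by its frequency in the input.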
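For phosphorylation enrichment, bacterial display in this document: 11-residue human phosphosite peptides and single-mutation variants displayed on the E. coli surface, counted by deep sequencing, each peptide's frequency after selection divided by its frequency in the unselected input library; frequency after pTyr selection over input frequency; kinase dosed for 20-30% of maximal phosphorylation in three min.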

MERTK, sequence (Q12866 whole entry, looked up): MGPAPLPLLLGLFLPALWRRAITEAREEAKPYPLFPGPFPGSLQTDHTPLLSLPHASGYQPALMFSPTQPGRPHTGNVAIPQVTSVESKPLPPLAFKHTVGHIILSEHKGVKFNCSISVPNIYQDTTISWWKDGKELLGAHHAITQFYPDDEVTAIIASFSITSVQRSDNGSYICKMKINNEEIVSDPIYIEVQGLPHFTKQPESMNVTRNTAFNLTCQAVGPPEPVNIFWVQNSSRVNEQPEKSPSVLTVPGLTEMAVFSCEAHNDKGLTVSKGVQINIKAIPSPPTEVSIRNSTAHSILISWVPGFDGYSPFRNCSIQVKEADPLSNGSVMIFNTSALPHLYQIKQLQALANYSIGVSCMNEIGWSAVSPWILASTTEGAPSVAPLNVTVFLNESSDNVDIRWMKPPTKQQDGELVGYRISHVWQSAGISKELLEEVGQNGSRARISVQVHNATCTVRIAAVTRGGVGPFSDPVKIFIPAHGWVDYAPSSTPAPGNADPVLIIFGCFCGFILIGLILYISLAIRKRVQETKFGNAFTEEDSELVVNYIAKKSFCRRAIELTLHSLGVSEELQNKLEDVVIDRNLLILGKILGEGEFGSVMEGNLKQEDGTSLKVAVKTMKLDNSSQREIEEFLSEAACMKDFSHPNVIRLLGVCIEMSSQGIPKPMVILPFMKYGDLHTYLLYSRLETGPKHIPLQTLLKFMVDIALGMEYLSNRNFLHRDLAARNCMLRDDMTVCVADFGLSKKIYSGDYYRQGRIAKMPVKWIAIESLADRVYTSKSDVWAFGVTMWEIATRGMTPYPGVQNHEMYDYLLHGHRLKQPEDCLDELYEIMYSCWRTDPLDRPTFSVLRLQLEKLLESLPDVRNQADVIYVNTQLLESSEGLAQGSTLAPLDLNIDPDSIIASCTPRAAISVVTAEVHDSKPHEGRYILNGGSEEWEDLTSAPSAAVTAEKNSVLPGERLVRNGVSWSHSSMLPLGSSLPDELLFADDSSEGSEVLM

Sequence	phosphorylation enrichment [1]	phosphorylation enrichment [2]	phosphorylation enrichment [3]	phosphorylation enrichment [4]	phosphorylation enrichment [5]	phosphorylation enrichment [6]	phosphorylation enrichment [7]	phosphorylation enrichment [8]	phosphorylation enrichment [9]	phosphorylation enrichment [10]	phosphorylation enrichment [11]	phosphorylation enrichment [12]	phosphorylation enrichment [13]	SH2 binding enrichment [14]	SH2 binding enrichment [15]	SH2 binding enrichment [16]
TESNNYIYKTL [FAM83B_Y637]	0.625	0.535	0.512	0.63	1.28	0.729	0.99	0.44	0.559	0.483	1.31	0.696	0.64	0.523	1.65	0.738
KAESWYQTKYE [KRT75_Y342_E337K]	0.367	0.433	0.57	0.471	0.457	0.763	0.459	0.524	0.396	0.399	0.485	0.698	0.491	0.479	0.648	0.805
TFLRTYTDTMQ [TSPAN7_Y124_A127T]	0.486	0.391	0.501	0.687	0.425	0.68	0.403	0.491	0.69	0.527	0.464	0.76	0.497	0.591	0.454	0.995
RAIGHYSATSK [FAM120A_Y328_Y327H]	0.576	0.757	0.542	0.665	0.665	0.964	0.942	0.819	0.777	0.684	0.522	0.97	0.892	0.619	0.81	0.702
ASKEPYFVRCI [MYO1D_Y585_YF]	0.449	0.574	0.569	1.22	0.611	1.38	0.659	0.734	0.938	0.762	0.622	1.77	0.93	0.398	0.448	0.904
FQNGMYGLHQD [SGSH_Y89_H84Y_YF]	0.462	0.456	0.454	0.733	0.828	0.665	0.598	0.543	0.552	0.437	0.599	0.709	0.555	0.459	0.724	0.748
VGQRPYRPLPE [REEP3_Y170_Q171R]	0.482	0.473	0.482	0.67	0.471	0.584	0.4	0.557	0.683	0.391	0.492	0.637	0.519	0.59	0.68	0.957
SHKELYKWFTS [DYNC1H1_Y3051_E3048K]	0.897	0.66	0.574	0.717	0.576	0.634	0.566	0.439	0.566	0.544	0.513	0.812	0.501	0.777	1.05	1.02
LSNPAYRLLLA [DDR1_Y513]	1.17	0.568	0.981	1.99	1.21	1.27	1.14	1.1	0.917	0.945	0.954	1.15	1.19	0.582	1.01	1.06
PSQRRYVYYYS [PTEN_Y174]	2.08	2.42	0.503	1.13	0.872	0.958	0.497	0.459	1.21	0.57	0.648	1.08	0.785	2.25	4.7	1.55
VASMFYTLVIP [OR8K3_Y277_I275M]	2.79	5.7	3.5	1.51	1.38	1.96	0.667	0.82	0.691	1.13	0.661	1.14	2.37	0.783	1.13	1.22
LLDGEYFTLQI [TP53_Y327_P322L]	10.9	1.28	1.99	8.38	7.23	5.89	2.24	1.49	3.69	1.95	3.2	5.59	8.15	0.6	0.462	1.08
QNTGDYFDLFG [PTPN11_Y62_YF]	26.8	3.03	0.753	11.6	1.56	8.28	1.3	20.4	1.48	23.3	1.26	1.49	23.3	0.409	0.689	0.795
KRISCYEASFQ [PFKFB3_Y194_YF]	0.523	0.527	0.593	1.06	0.568	0.973	0.49	0.536	0.88	0.58	0.452	1.11	0.85	0.502	0.53	0.64
AFSLKYEQQTQ [SYTL4_Y366]	0.53	0.491	0.719	0.982	0.364	1.03	0.535	0.624	0.564	0.694	0.437	1.21	0.841	0.587	0.67	1.09
SVVVPCEPPEV [TP53_Y220_Y220C]	0.517	0.459	0.525	1.04	0.481	0.998	0.517	0.671	0.834	0.534	0.438	1.18	0.678	0.571	0.886	1.02
DKATEYIQFMR [MAX_Y70_YF]	0.589	0.439	0.439	0.793	0.703	1	0.69	0.549	0.803	0.528	0.675	1.01	0.655	0.565	0.608	0.887

Sequence	phosphorylation enrichment [1]	phosphorylation enrichment [2]	phosphorylation enrichment [3]	phosphorylation enrichment [4]	phosphorylation enrichment [5]	phosphorylation enrichment [6]	phosphorylation enrichment [7]	phosphorylation enrichment [8]	phosphorylation enrichment [9]	phosphorylation enrichment [10]	phosphorylation enrichment [11]	phosphorylation enrichment [12]	phosphorylation enrichment [13]	SH2 binding enrichment [14]	SH2 binding enrichment [15]	SH2 binding enrichment [16]
MANYVYKAGPS [MAML2_Y515_M514V]	0.434	0.473	0.343	0.452	0.457	0.448	0.419	0.455	0.815	0.476	0.451	0.643	0.508	0.547	1.09	0.755
NSNAAYEESHF [LRIF1_Y714_Q716E]	0.443	0.385	0.504	0.87	0.475	0.849	0.496	0.499	0.659	0.483	0.434	0.919	0.614	1.23	0.608	0.792
KACKHYLTTRT [ZBTB5_Y118]	0.448	0.563	0.534	0.978	0.659	0.712	0.501	0.507	0.859	0.46	0.505	0.964	0.64	1.43	1.4	1.7
EFFENYIEELK [PARP4_Y218_F215Y_YF]	0.488	0.425	0.532	1.41	0.501	1.3	0.533	0.669	0.869	0.617	0.421	1.35	0.744	0.502	0.663	0.941
ARTNEYKIIRS [INA_Y87_T92S]	0.282	0.407	0.33	0.454	0.407	0.435	0.316	0.372	0.337	0.394	0.406	0.563	0.406	0.514	0.859	1.06
EEQFFYEKAIL [BCCIP_Y257_E254Q]	0.442	0.502	3.96	0.828	0.608	1.11	0.654	0.48	0.748	0.434	0.466	0.999	0.588	0.53	0.795	1.04
GAVGNYSGGLA [MGMT_Y158]	0.453	0.422	0.483	0.419	0.335	0.57	0.408	0.48	0.43	0.554	0.374	0.765	0.61	0.367	0.622	0.551
REIHDYIKHLG [UNC13C_Y308_D304E]	0.371	0.723	0.651	0.843	1.02	0.631	0.511	0.663	0.794	0.699	0.821	1.26	0.741	0.512	0.475	0.788
ATPSRYMTFLH [DYNC2H1_Y2872]	0.329	0.396	0.457	0.656	0.482	0.667	0.487	0.403	0.527	0.505	0.435	0.748	0.574	1.32	8.55	0.757
SEEVTYATLTF [CLEC12B_Y7]	1.49	2.18	2.19	1.38	5.28	1.48	5.06	1.07	5.98	0.98	6.58	1.53	1.57	0.481	2.52	0.845
SHSMRYFFTAV [HLA-C_Y31_D33F]	0.62	0.525	0.619	1.13	0.568	1.13	0.525	0.626	0.923	0.595	0.53	1.3	0.874	1.25	1.33	1.39
TLSGIYQYNIA [FOXL2_Y81_I84N]	0.752	9.86	13.1	0.951	6.54	1.32	4.79	1.15	1.06	1.82	4.61	0.963	0.701	1.33	1.07	0.817
LGSWTYTKTVS [ROS1_Y144]	1.19	0.519	0.8	1.61	0.774	1.94	1.05	1.04	0.965	2.19	0.86	2.38	1.44	0.415	0.64	0.817
TFEFRYLEDRD [CNOT3_Y746_YF]	0.599	0.398	0.606	1.17	0.591	1.35	0.67	0.756	0.762	0.676	0.686	1.37	0.826	0.584	0.96	1.08
CKLCQYYLDHL [ATRX_Y1849_Y1847C]	0.579	0.419	0.423	0.806	1.57	0.795	0.437	0.419	0.593	0.673	0.515	0.779	0.613	1.39	1.67	1.54
WASSSYRETPS [SORBS1_Y79_R74W]	0.438	0.39	0.389	0.45	0.362	0.57	0.409	0.353	0.391	0.411	0.402	0.57	0.444	0.467	0.846	0.779
